According to publication PMC5923501:

Key:
Assay in all cases: flow cytometry on cells; 5 × 10^6 CHO745 cells expressing the receptor or chimera incubated with 10 μg of Alexa fluorophore conjugated eE2 in 600 μL PBS at room temperature for 2 h, washed three times with PBS; read-out MFI of Alexa-647; one representative experiment of three
[1] = target: hCD81 LEL-ceTSP9 backbone chimera (Caenorhabditis elegans | human) (UniProt P60033)
[2] = target: scavenger receptor type B class I (SR-BI) (UniProt Q8WTV0)
[3] = target: hCD81 LEL-hCD9 backbone chimera (human) (UniProt P60033)

Chain of UniProt Q8WTV0 (Q8WTV0 whole entry): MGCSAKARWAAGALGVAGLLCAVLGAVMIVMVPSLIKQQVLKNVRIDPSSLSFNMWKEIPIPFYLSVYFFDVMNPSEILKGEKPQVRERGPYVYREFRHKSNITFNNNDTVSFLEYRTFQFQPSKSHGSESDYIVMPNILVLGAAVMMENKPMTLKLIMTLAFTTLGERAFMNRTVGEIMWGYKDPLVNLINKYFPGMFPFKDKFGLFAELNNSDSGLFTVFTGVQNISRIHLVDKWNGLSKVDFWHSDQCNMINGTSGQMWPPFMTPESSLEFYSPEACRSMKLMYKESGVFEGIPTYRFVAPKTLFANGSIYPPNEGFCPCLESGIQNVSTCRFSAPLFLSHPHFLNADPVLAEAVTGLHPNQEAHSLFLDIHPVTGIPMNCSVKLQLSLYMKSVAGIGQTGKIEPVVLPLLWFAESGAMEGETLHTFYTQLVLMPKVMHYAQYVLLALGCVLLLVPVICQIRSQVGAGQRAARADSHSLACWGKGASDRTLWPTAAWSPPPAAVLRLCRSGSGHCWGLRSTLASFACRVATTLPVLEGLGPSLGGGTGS

Substance | MFI [1] | MFI [2] | fold change of binding against wildtype J6 eE2 [3] [fold]
HCV E2 ectodomain (eE2) from genotype 2a (strain J6) (from UniProt P26660 384-729) (domain or fragment) | 15000 | 65000 | 
HCV E2 ectodomain (eE2) from genotype 1a (strain H77) (from UniProt P27958 384-725) (domain or fragment) | 20000 | 22000 | 
ΔHVR1 J6 eE2 (domain or fragment) |  |  | 3
